Changes are numbered by the printed parent chain. Numbers in names are those of the source. Where “and” joins values, the source holds several entries; their conditions need not be identical. Identical values can stand only once. Like-named read-outs stand apart in the source and are kept apart here.
T1: recombinant human APRIL (Tonbo Biosciences) (human, UniProt O75888 105-250, limits assumed)
T1 sequence (looked up): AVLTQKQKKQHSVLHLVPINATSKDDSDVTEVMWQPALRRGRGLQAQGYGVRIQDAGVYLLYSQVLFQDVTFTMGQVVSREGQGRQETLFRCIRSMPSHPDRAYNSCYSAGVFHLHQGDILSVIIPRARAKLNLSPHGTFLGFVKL

B1: TACI WT 13 GSG4S (74) Fc 73(G4S)4 (84) (TACI WT 13 (SEQ ID NO: 202) (Fc fusion)
chain: SLSCRKEQGKFYDHLLRDCISCASICGQHPKQCAYFCENKLRSGSGGGGSEPKSSDKTHTCPPCPAPEAEGAPSVFLFPPKPKDTLMISRTPEVTCVVVDVSHEDPEVKFNWYVDGVEVHNAKTKPREEQYNSTYRVVSVLTVLHQDWLNGKEYKCKVSNKALPAPIEKTISKAKGQPREPQVYTLPPSRDELTKNQVSLTCLVKGFYPSDIAVEWESNGQPENNYKTTPPVLDSDGSFFLYSKLTVDKSRWQQGNVFSCSVMHEALHNHYTQKSLSLSPGGGGGSGGGGSGGGGSGGGGSSLSCRKEQGKFYDHLLRDCISCASICGQHPKQCAYFCENKLRS
B2: TACI 26 GSG4S (74) Fc 73 (G4S)4 (84) TACI 26 (SEQ ID NO: 201) (Fc fusion)
chain: B1 chain with K10E, F11Y, Y35D, K311E, F312Y, Y336D
B3: belimumab, anti-BAFF monoclonal antibody (antibody, V domains shown)
VH: QVQLQQSGAEVKKPGSSVRVSCKASGGTFNNNAINWVRQAPGQGLEWMGGIIPMFGTAKYSQNFQGRVAITADESTGTASMELSSLRSEDTAVYYCARSRDLLLFPHHALSPWGRGTMVTVSS
VL: SSELTQDPAVSVALGQTVRVTCQGDSLRSYYASWYQQKPGQAPVLVIYGKNNRPSGIPDRFSGSSSGNTASLTITGAQAEDEADYYCSSRDSSGNHWVFGGGTELTVLG
B4: TACI WT 13 (G4S)4 (84) (TACI WT 13 GSG4S (74) Fc 73 (SEQ ID NO: 198) (Fc fusion)
chain: SLSCRKEQGKFYDHLLRDCISCASICGQHPKQCAYFCENKLRSGGGGSGGGGSGGGGSGGGGSSLSCRKEQGKFYDHLLRDCISCASICGQHPKQCAYFCENKLRSGSGGGGSEPKSSDKTHTCPPCPAPEAEGAPSVFLFPPKPKDTLMISRTPEVTCVVVDVSHEDPEVKFNWYVDGVEVHNAKTKPREEQYNSTYRVVSVLTVLHQDWLNGKEYKCKVSNKALPAPIEKTISKAKGQPREPQVYTLPPSRDELTKNQVSLTCLVKGFYPSDIAVEWESNGQPENNYKTTPPVLDSDGSFFLYSKLTVDKSRWQQGNVFSCSVMHEALHNHYTQKSLSLSPG
B5: atacicept (WT TACI-Fc sequences corresponding to atacicept, containing WT TACI 30-110; SEQ ID NO:132) (Fc fusion)
chain: AMRSCPEEQYWDPLLGTCMSCKTICNHQSQRTCAAFCRSLSCRKEQGKFYDHLLRDCISCASICGQHPKQCAYFCENKLRSEPKSSDKTHTCPPCPAPEAEGAPSVFLFPPKPKDTLMISRTPEVTCVVVDVSHEDPEVKFNWYVDGVEVHNAKTKPREEQYNSTYRVVSVLTVLHQDWLNGKEYKCKVSNKALPSSIEKTISKAKGQPREPQVYTLPPSRDELTKNQVSLTCLVKGFYPSDIAVEWESNGQPENNYKTTPPVLDSDGSFFLYSKLTVDKSRWQQGNVFSCSVMHEALHNHYTQKSLSLSPGK
B6: TACI WT 131 GS(G4S)2 (194) scFc_218 (SEQ ID NO: 205) (Fc fusion)
chain: SRVDQEERFPQGLWTGVAMRSCPEEQYWDPLLGTCMSCKTICNHQSQRTCAAFCRSLSCRKEQGKFYDHLLRDCISCASICGQHPKQCAYFCENKLRSPVNLPPELGSGGGGSGGGGSEPKSSDKTHTCPPCPAPEAEGAPSVFLFPPKPKDTLMISRTPEVTCVVVDVSHEDPEVKFNWYVDGVEVHNAKTKPREEQYNSTYRVVSVLTVLHQDWLNGKEYKCKVSNKALPAPIEKTISKAKGQPREPQVYTLPPSRDELTKNQVSLTCLVKGFYPSDIAVEWESNGQPENNYKTTPPVLDSDGSFFLYSKLTVDKSRWQQGNVFSCSVMHEALHNHYTQKSLSLSPGGGGGSGGGGSGGGGSGGGGSGGGGSGGGGSGGGGSGGGGSGGGGSGGGGSGGGGSGGGGSEPKSSDKTHTCPPCPAPEAEGAPSVFLFPPKPKDTLMISRTPEVTCVVVDVSHEDPEVKFNWYVDGVEVHNAKTKPREEQYNSTYRVVSVLTVLHQDWLNGKEYKCKVSNKALPAPIEKTISKAKGQPREPQVYTLPPSRDELTKNQVSLTCLVKGFYPSDIAVEWESNGQPENNYKTTPPVLDSDGSFFLYSKLTVDKSRWQQGNVFSCSVMHEALHNHYTQKSLSLSPG
B7: TACI WT 13 GS(G4S)2 (194) sc_Fc 218 (SEQ ID NO: 196) (Fc fusion)
chain: SLSCRKEQGKFYDHLLRDCISCASICGQHPKQCAYFCENKLRSGSGGGGSGGGGSEPKSSDKTHTCPPCPAPEAEGAPSVFLFPPKPKDTLMISRTPEVTCVVVDVSHEDPEVKFNWYVDGVEVHNAKTKPREEQYNSTYRVVSVLTVLHQDWLNGKEYKCKVSNKALPAPIEKTISKAKGQPREPQVYTLPPSRDELTKNQVSLTCLVKGFYPSDIAVEWESNGQPENNYKTTPPVLDSDGSFFLYSKLTVDKSRWQQGNVFSCSVMHEALHNHYTQKSLSLSPGGGGGSGGGGSGGGGSGGGGSGGGGSGGGGSGGGGSGGGGSGGGGSGGGGSGGGGSGGGGSEPKSSDKTHTCPPCPAPEAEGAPSVFLFPPKPKDTLMISRTPEVTCVVVDVSHEDPEVKFNWYVDGVEVHNAKTKPREEQYNSTYRVVSVLTVLHQDWLNGKEYKCKVSNKALPAPIEKTISKAKGQPREPQVYTLPPSRDELTKNQVSLTCLVKGFYPSDIAVEWESNGQPENNYKTTPPVLDSDGSFFLYSKLTVDKSRWQQGNVFSCSVMHEALHNHYTQKSLSLSPG
B8: TACI 26 GS(G4S)2 (194) scFc_218 (SEQ ID NO: 199) (Fc fusion)
chain: B7 chain with K10E, F11Y, Y35D
B9: TACI WT 1 GS(G4S)2 (194) scFc_218 (SEQ ID NO: 203) (Fc fusion)
chain: VAMRSCPEEQYWDPLLGTCMSCKTICNHQSQRTCAAFCRSLSCRKEQGKFYDHLLRDCISCASICGQHPKQCAYFCENKLRSGSGGGGSGGGGSEPKSSDKTHTCPPCPAPEAEGAPSVFLFPPKPKDTLMISRTPEVTCVVVDVSHEDPEVKFNWYVDGVEVHNAKTKPREEQYNSTYRVVSVLTVLHQDWLNGKEYKCKVSNKALPAPIEKTISKAKGQPREPQVYTLPPSRDELTKNQVSLTCLVKGFYPSDIAVEWESNGQPENNYKTTPPVLDSDGSFFLYSKLTVDKSRWQQGNVFSCSVMHEALHNHYTQKSLSLSPGGGGGSGGGGSGGGGSGGGGSGGGGSGGGGSGGGGSGGGGSGGGGSGGGGSGGGGSGGGGSEPKSSDKTHTCPPCPAPEAEGAPSVFLFPPKPKDTLMISRTPEVTCVVVDVSHEDPEVKFNWYVDGVEVHNAKTKPREEQYNSTYRVVSVLTVLHQDWLNGKEYKCKVSNKALPAPIEKTISKAKGQPREPQVYTLPPSRDELTKNQVSLTCLVKGFYPSDIAVEWESNGQPENNYKTTPPVLDSDGSFFLYSKLTVDKSRWQQGNVFSCSVMHEALHNHYTQKSLSLSPG
B10: Telitacicept/Tai'ai (RemeGen) (Fc fusion)
chain: SRVDQEERFPQGLWTGVAMRSCPEEQYWDPLLGTCMSCKTICNHQSQRTCAAFCRSLSCRKEQGKFYDHLLRDCISCASICGQHPKQCAYFCENKLRSPVNLPPEL

Experiments:
Assay in all cases: cell-based or functional assay
[1] = target: BAFF 60-mer (an oligomer of twenty BAFF 3-mers)
[2] = target: T2, recombinant human BAFF (BioLegend) (human, UniProt Q9Y275 134-285)
[3] = target: T1, recombinant human APRIL (Tonbo …)
[4] = target: T2, recombinant human BAFF (BioLegend); remark: listed apart in the source
[5] = target: T2, recombinant human BAFF (BioLegend); remark: listed apart in the source
[6] = target: T2, recombinant human BAFF (BioLegend); remark: listed apart in the source
[7] = target: T1, recombinant human APRIL (Tonbo …); remark: listed apart in the source
[8] = target: T1, recombinant human APRIL (Tonbo …); remark: listed apart in the source

Row | Binder | BAFF 60-mer IC50 (pM) [1] | BAFF IC50 (pM) [2] | APRIL IC50 (pM) [3] | BAFF IC50 (pM) [4] | IC50 (pM) BAFF [5] | other results
1 | B1 | 2580 pM | 1040 pM | 11900 pM |  |  | 
2 | B2 | 778 pM | 779 pM | 3760 pM |  |  | 
3 | B3 |  |  |  | 2200 pM | 2260 pM | BAFF IC50 (Δ WT) [4]: 1.18 ratio; IC50 (nM) BAFF [6]: 2500 nM; IC50 BAFF (Δ TACI 30-110-Fc) [6]: 0.43 ratio; IC50 (nM) APRIL [7]: 215000 nM; IC50 APRIL (Δ TACI 30-110-Fc) [7]: 55.8 ratio
4 | B4 | 4330 pM | 3290 pM | 34600 pM |  |  | 
5 | B5 |  |  |  | 7740 pM | 8280 pM | BAFF IC50 (Δ WT) [4]: 4.17 ratio; IC50 (pM) APRIL [8]: 9260 pM
6 | B6 | 14300 pM | 4580 pM |  |  |  | 
7 | B7 | 24100 pM | 5700 pM |  |  |  | 
8 | B8 | 106000 pM | 8240 pM |  |  |  | 
9 | B9 | 15800 pM | 4420 pM |  |  |  | 
10 | B10 |  |  |  | 9170 pM and 7300 pM | 6850 pM | IC50 (pM) APRIL [8]: 17200 pM

Reference: patent publication US20240279310A1 (ALPINE IMMUNE SCIENCES, published 2024)
